As usually defined, the IC50 is the concentration that inhibits the measured activity by half. A high value points to lower potency.

Like-named read-outs stand apart in the source and are kept apart here.

Here are results for one substance from patent publication US20030166870A1.

Assay [1] deals with FLAG-tagged human CCR5 expressed on transfected L1.2 murine pre-B lymphoma cells (human) (UniProt P51681).
For assay [2] the target is unchanged. The experiment in a line: cell-based or functional assay.
Assay [3] concerns the target human CCR5 (no tag stated) (human) (UniProt P51681). The experiment in a line: cell-based or functional assay.
Assay [4] has the same target. Nature of the assay: 10 µg/ml mAb; 125I-MIP-1α binding to activated IL-2 maintained T cells (CD3 blasts); competitor MIP-1α.
Assay [5] shares this target. Nature of the assay: 10 µg/ml mAb; 125I-RANTES binding to activated IL-2 maintained T cells (CD3 blasts); competitor RANTES.
Assay [6] has as its target FLAG-tagged human CCR5 expressed on transfected L1.2 murine pre-B lymphoma cells (human) (UniProt P51681). Nature of the assay: inhibition of 0.1 nM 125I-MIP-1α binding to CCR5 L1.2 transfectants by decreasing amounts of mAb; competitor MIP-1α.
Assay [7] shares this target. Nature of the assay: inhibition of 0.1 nM 125I-MIP-1β binding to CCR5 L1.2 transfectants by decreasing amounts of mAb; competitor MIP-1β.
For assay [8] the target is unchanged. Nature of the assay: inhibition of 0.1 nM 125I-RANTES binding to CCR5 L1.2 transfectants by decreasing amounts of mAb; competitor RANTES.

Regarding murine monoclonal antibody 2D7, the IC50 stood at 0.01 µg/mL in assay [1], 0.023 µg/mL in assay [6], 0.041 µg/mL in assay [7] and 0.058 µg/mL in assay [8]. The substance further showed a concentration giving complete inhibition of 125I-gp120 binding in assay [1] of 50 ng/mL. The mAb concentration sufficient for complete inhibition of migration of CCR5 L1.2 cells to all of the ligands in assay [2] amounted to 20 µg/mL. Besides, in assay [3], the inhibition of RANTES and MIP-1α chemotactic responses by T cell lines fell in the range of 60 to 80%. In assay [3], the inhibition of chemotactic response of anti-CD3/IL-2 stimulated T cells to MIP-1α fell in the range of 60 to 80%. This substance also registered a percent inhibition of 125I-MIP-1α binding in assay [4] of 85%. Moreover, in assay [5], the percent inhibition of 125I-RANTES binding stood at 95%.
